# Data from PMC11648230, “Structure–function analysis of tRNA t^6A-catalysis, assembly, and thermostability of Aquifex aeolicus TsaD2B2 tetramer in complex with TsaE” (The Journal of Biological Chemistry, 2024).
# Legend:
# [1] = biological target: Aquifex aeolicus TsaD2B^mut2 tetramer (Aquifex aeolicus | Thermotoga maritima) (UniProt O66986)
# [2] = biological target: Aquifex aeolicus TsaD^Δ34–382B2 tetramer (Aquifex aeolicus) (UniProt O66986)
# [3] = biological target: Aquifex aeolicus TsaD2B2 tetramer (Aquifex aeolicus) (UniProt O66986)
# [4] = substrate: Nc1ncnc2c1ncn2[C@@H]1O[C@H](COP(=O)(O)OP(=O)(O)OP(=O)(O)O)[C@@H](O)[C@H]1O; experiment: NADH-coupled ATPase assay; format: biochemical, Aquifex aeolicus; details: 10 uM TsaE with 5 uM TsaD2B2, no tRNA, 10 mM MgCl2, 100 mM KCl, pH 7.5, 37 °C
# Description: NADH-coupled ATPase assay on A. aeolicus TsaD2B2E2
# [5] = substrate: Nc1ncnc2c1ncn2[C@@H]1O[C@H](COP(=O)(O)OP(=O)(O)OP(=O)(O)O)[C@@H](O)[C@H]1O; experiment: NADH-coupled ATPase assay; format: biochemical, Aquifex aeolicus; details: 10 uM TsaE alone, 10 mM MgCl2, 100 mM KCl, pH 7.5, 37 °C
# Description: NADH-coupled ATPase assay on A. aeolicus TsaE (AaTsaE)
# Sequence of Aquifex aeolicus TsaD2B^mut2 tetramer (Aquifex aeolicus | Thermotoga maritima) (O66986 whole entry, looked up): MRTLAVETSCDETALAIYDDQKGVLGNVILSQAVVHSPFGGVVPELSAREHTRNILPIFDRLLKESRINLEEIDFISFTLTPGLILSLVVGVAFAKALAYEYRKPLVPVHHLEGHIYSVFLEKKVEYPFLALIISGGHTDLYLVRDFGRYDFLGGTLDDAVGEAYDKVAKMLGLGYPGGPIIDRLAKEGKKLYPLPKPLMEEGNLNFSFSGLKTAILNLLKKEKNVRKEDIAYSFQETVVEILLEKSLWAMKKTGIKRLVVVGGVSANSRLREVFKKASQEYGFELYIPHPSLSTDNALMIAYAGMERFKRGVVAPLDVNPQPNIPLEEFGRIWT
# Sequence of Aquifex aeolicus TsaD2B2 tetramer (Aquifex aeolicus) (O66986 whole entry, chain 1 of 2): as the sequence (O66986 whole entry, looked up) above
# Sequence of Aquifex aeolicus TsaD2B2 tetramer (Aquifex aeolicus) (partner O66494, as listed by the source, chain 2 of 2): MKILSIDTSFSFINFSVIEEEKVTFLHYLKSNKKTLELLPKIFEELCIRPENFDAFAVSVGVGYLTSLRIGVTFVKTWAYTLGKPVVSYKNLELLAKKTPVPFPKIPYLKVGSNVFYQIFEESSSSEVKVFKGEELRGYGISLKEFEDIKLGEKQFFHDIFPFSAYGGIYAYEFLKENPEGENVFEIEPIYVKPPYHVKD
# Sequence of Aquifex aeolicus TsaD^Δ34–382B2 tetramer (Aquifex aeolicus) (O66986 other isoform, or with tags, fused parts or gaps mutant, chain 1 of 2): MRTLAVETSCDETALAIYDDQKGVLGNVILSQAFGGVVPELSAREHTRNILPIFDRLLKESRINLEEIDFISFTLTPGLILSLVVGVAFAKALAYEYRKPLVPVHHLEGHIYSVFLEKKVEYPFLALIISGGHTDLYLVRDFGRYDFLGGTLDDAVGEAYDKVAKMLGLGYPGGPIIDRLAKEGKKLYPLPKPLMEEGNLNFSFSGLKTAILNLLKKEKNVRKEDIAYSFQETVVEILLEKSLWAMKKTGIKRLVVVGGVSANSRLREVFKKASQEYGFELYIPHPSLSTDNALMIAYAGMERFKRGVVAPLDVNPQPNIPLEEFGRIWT
# Sequence of Aquifex aeolicus TsaD^Δ34–382B2 tetramer (Aquifex aeolicus) (partner O66494, as listed by the source mutant, chain 2 of 2): as the sequence (partner O66494, as listed by the source, chain 2 of 2) above
binder,measurement,setting,value
Aquifex aeolicus TsaE (enzyme) MELLKEVILESEEDTYKLAEEIAQLLKGSEVICLRGTLGAGKTTFVKALAKALKVKNPSAVRSPTFTLVNEYETDKGKLIHIDLYRVPDFDYSEFIGEGILAVEWEERDKPCDIILEIEILDENKRKVRIYRK,"Vmax of ATP to ADP hydrolysis by 10 μM TsaE with 5 μM TsaD2B^mut2 (NADH-coupled assay, 37 °C)",[1],0.125 µM/s
same,"kcat of ATP to ADP hydrolysis by 10 μM TsaE with 5 μM TsaD2B^mut2 (NADH-coupled assay, 37 °C)",[1],0.025 s⁻¹
same,"Vmax of ATP to ADP hydrolysis by 10 μM TsaE with 5 μM TsaD^Δ34–382B2 (NADH-coupled assay, 37 °C)",[2],0.219 µM/s
same,"kcat of ATP to ADP hydrolysis by 10 μM TsaE with 5 μM TsaD^Δ34–382B2 (NADH-coupled assay, 37 °C)",[2],0.044 s⁻¹
same,"Vmax of ATP to ADP hydrolysis by 10 μM TsaE with 5 μM TsaD2B2 (NADH-coupled assay, 37 °C); TsaE alone 0.0374",[3],0.0982 µM/s
same,"kcat of ATP to ADP hydrolysis by 10 μM TsaE with 5 μM TsaD2B2 (NADH-coupled assay, 37 °C); TsaE alone 0.007",[3],0.02 s⁻¹
"A. aeolicus TsaD2B2E2 (Aquifex aeolicus VF5) (protein, recombinant from E. coli; with tRNA N6-adenosine threonylcarbamoyltransferase; tRNA threonylcarbamoyladenosine biosynthesis protein TsaB) MELLKEVILESEEDTYKLAEEIAQLLKGSEVICLRGTLGAGKTTFVKALAKALKVKNPSAVRSPTFTLVNEYETDKGKLIHIDLYRVPDFDYSEFIGEGILAVEWEERDKPCDIILEIEILDENKRKVRIYRK",Km,[4],0.228 ± 0.0479 mM
same,Vmax,[4],5.89 µM/min
same,kcat,[4],0.02 ± 0.0012 s⁻¹
same,kcat/Km,[4],86 M⁻¹ s⁻¹
"A. aeolicus TsaE (AaTsaE) (Aquifex aeolicus VF5) (protein, recombinant from E. coli (plasmid pET24d-BC11_Eop); monomer) MELLKEVILESEEDTYKLAEEIAQLLKGSEVICLRGTLGAGKTTFVKALAKALKVKNPSAVRSPTFTLVNEYETDKGKLIHIDLYRVPDFDYSEFIGEGILAVEWEERDKPCDIILEIEILDENKRKVRIYRK",Km,[5],0.096 ± 0.0449 mM
same,Vmax,[5],2.24 µM/min
same,kcat,[5],0.007 ± 0.0007 s⁻¹
same,kcat/Km,[5],78 M⁻¹ s⁻¹
